From article PMC7053344, “Crystal Structures of Human C4.4A Reveal the Unique Association of Ly6/uPAR/α-neurotoxin Domain” (International Journal of Biological Sciences, 2020)

What was measured:
[1] = molecular target: T1, C4.4A^1-278 fused to a C-terminal uPAR DIII purification tag (Homo sapiens, UniProt O95274); test: far-Western, overlay or dot blot; immunoblot: purified C4.4A domain constructs, unreduced (lanes 1-6), separated by SDS-PAGE and immobilized on a PVDF membrane; 1 µg/mL mAb 11H10 as primary antibody, peroxidase-conjugated anti-mouse immunoglobulins, ECL; conditions: both partners purified
T1 construct: C4.4A (LYPD3), human, DI, DII and STP-rich region, residues 1-278; also called C4.4A-ent-uPAR-DIII; not shown: uPAR DIII, C-terminal, kept
T1 sequence (O95274 whole entry, looked up, the tested form may be a part): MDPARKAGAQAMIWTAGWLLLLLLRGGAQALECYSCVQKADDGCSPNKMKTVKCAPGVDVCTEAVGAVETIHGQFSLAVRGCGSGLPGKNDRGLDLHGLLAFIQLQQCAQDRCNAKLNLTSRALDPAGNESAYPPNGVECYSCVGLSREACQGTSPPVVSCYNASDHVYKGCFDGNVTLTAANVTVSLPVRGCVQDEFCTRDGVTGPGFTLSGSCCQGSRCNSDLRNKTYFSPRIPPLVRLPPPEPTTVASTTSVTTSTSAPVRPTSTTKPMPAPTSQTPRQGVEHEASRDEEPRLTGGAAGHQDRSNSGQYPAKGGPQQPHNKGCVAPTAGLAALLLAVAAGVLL

[2] = molecular target: T2, C4.4A-DIDII^1-199 fused to a C-terminal uPAR DIII purification tag (Homo sapiens, UniProt O95274); test: as above; conditions: both partners purified
T2 construct: C4.4A (LYPD3), human, both LU-domains DI and DII, residues 1-199; also called C4.4A-DIDII (blot construct); not shown: uPAR DIII, C-terminal, kept
T2 sequence (O95274 whole entry, looked up, the tested form may be a part): as above

B1: mouse monoclonal anti-human C4.4A antibody 11H10 (antibody, V domains shown)
VH: QVTLKESGPGILQPSQTLSLTCSFSGFSLNSFGTGVGWIRQPSGKGLEWLAHIWWNDYKYYNAALESRLTISKDTSNNQVFLKIASVDTADTATYYCARLRLRYFDYWGQGTTLTVSS
VL: DILMTQSPAILSVSPGEGVSFSCWANQNIGTSIHWYQQRTNGSPRLLIKYASESISGIPSRFSGSGSGTDFTLSINSVESEDIADYYCQQSNSWPIFTFGSGTKLEIK
notes: 11H10 light chain (kappa), printed as the Fab light chain; 11H10 heavy chain VH, CH1 and start of the hinge, printed as the Fab heavy chain; mouse IgG1 heavy chain constant region, the rest of the hinge, CH2 and CH3 that follow the printed Fd (ends VPRDC); IgG1 kappa; also called mAb 11H10; source: mouse hybridoma (FVB mice immunized with recombinant human C4.4A), purified
[1]
  binding result: binds
[2]
  binding result: binds
